For assay [1], the target named is T1, commercially available recombinant CD16B (Allele NA-2; BSA free; RD Systems) (UniProt O75015 17-200, limits assumed).
T1 construct: also called recombinant CD16B-Fc
Description: ELISA, recombinant CD16B coated at 80 nM. The method, then: (§1) FIG. 3: ELISA on recombinant CD16A-Fc and CD16B. Recombinant CD16A-Fc and CD16B proteins were coated at 80 nM in 0.1 M NaHCO₃, pH 8.8. Wells were blocked with PBS, 2% skimmed milk. The binding of the scFv to the recombinant proteins and to gp34-Fc (negative control) was detected using an anti-c-Myc-HRP conjugate (10 μg/ml). […] Coated recombinant CD16B was directly detected by staining with an anti-His-HRP (1 μg/mL) and coating of the Fc-Fusion proteins was tested by an anti-human IgG-HRP conjugate (0.5 μg/mL). As HRP-substrate, 50 μL of TMB were used. After termination of the reaction with 50 μL 0.5 M H₂SO₄, absorbance was measured at 450 nm.
(§2) In order to generate further supporting data concerning the CD16A specificity of the scFvs, an ELISA was performed using the CD16A-Fc fusion protein (Example 1) and commercially available recombinant CD16B-Fc (Allele NA-2; BSA free; RD Systems). A gp34-Fc fusion protein was used as a negative control. The recombinant proteins were coated overnight at a concentration of 80 nM in 100 mM NaHCO₃ at pH 8.8.
(§3) Detection of scFv bound to the recombinant proteins was carried out by using an anti-c-myc-HRP conjugate (10 μg/ml). […] Binding to the recombinant CD16B was tested by directly staining with anti-His-HRP (1 μg/mL) and binding to the Fc-Fusion proteins was tested by an anti-human IgG-HRP conjugate (0.15 μg/mL).
In general terms: ELISA stands for enzyme-linked immunosorbent assay.

Assay [2] concerns the target T2, NKp46 extracellular domain fused to zeta chain, on transiently transfected HEK-293 cells (293/NKp46) (human, UniProt O76036 22-258; P20963 31-164).
T2 construct: extracellular domain;domain: transmembrane and cytoplasmic domain; On the cell surface; also called NKp46-transfectants; pcDNA3-NKp46-zeta
The assay can be described thus: flow cytometry on 293/NKp46 cells; scFv, anti-hexa His MAb 13/45/31-2, FITC goat anti-mouse IgG; MFI minus secondary reagents alone. The method, then: (§4) The mean fluorescence intensities obtained from flow cytometric analysis were corrected by subtracting the fluorescence values from cell stainings with the secondary reagents alone, and plotted in the diagram.
(§5) For flow cytometric analysis, the following cell lines were used: BW and BW/CD16A transfectants were cultured as described previously. […] The transient transfections were performed using the calcium phosphate method as described in Example 1 and were used for flow cytometric staining and analysis two days after transient transfection. Flow cytometric staining and analysis was performed as essentially described before.
For orientation: A flow cytometer gives signals particle by particle.

Assay [3] deals with T3, human CD16A-Fc^48R/158V fusion protein (human, UniProt P08637 17-208, limits assumed).
T3 construct: Secreted soluble fusion made in HEK-293 cells; also called CD16-Fc; CD16A Fc-fusion protein; not shown: Fc portion of human IgG1
T3 sequence (P08637 17-208 L66R/F176V limits assumed): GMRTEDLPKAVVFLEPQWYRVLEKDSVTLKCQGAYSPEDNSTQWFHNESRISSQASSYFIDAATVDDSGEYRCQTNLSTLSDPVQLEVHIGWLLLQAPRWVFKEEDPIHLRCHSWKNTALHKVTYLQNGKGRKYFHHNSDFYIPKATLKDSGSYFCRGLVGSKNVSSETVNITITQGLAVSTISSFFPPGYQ
Description: SPR, BIAcore 2000, CD16A-Fc immobilized on CM5, 1:1 Langmuir. The method, then: (§6) The affinity constants (KD values) of the scFv were determined by SPR using the BIAcore 2000 biosensor system (Amersham-Pharmacia). The CD16A-Fc fusion protein and BSA used as a negative control were immobilized on the carboxymethyldextran-coated sensor chip CM5 using conventional NHS/EDC chemistry for the amine coupling procedure (BIAcore). Purified scFvs were diluted in HBS-EP buffer (BIAcore, Uppsala, Sweden). Binding data was generated by passing varying concentrations of the scFv antibodies (100 nM, 200 nM, 400 nM, 800 nM and 1600 nM) over the immobilized antigen. […] All SPR measurements were performed at a constant flow rate of 20 μL/min in HBS-EP buffer at 25° C. Each injected sample (100 μl) was in contact with antigen for 5 minutes. The dissociation was followed for 30 minutes. After each cycle, the surface of the sensor chip was flushed with HBS-EP buffer. Signals from the control channel coated with BSA were automatically subtracted. Kinetic constants were calculated according to the 1/1 Langmuir binding model using the BIAevaluation version 3.0 software (BIAcore).
On the technique in general: In SPR one partner is held on a chip, and binding of the other changes the refractive index at the surface.

Assay [4] addresses T3, human CD16A-Fc^48R/158V fusion protein. Description: SPR, BIAcore 2000, CD16A-Fc immobilized on CM5, koff/kon. The method, then: as §6
For assay [5], the target named is T4, human CD16B (NA-2 allele) on stably transfected HEK-293 cells (293/CD16B) (human, UniProt O75015 17-200).
T4 construct: whole, on cells
T4 sequence (O75015 17-200 N65S): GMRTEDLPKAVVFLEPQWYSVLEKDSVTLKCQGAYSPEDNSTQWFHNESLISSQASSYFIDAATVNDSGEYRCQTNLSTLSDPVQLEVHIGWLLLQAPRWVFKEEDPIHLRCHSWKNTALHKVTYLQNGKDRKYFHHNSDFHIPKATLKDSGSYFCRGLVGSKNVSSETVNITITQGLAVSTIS
The assay can be described thus: flow cytometry on 293/CD16B cells; scFv, anti-hexa His MAb 13/45/31-2, FITC goat anti-mouse IgG; MFI minus secondary reagents alone. The method, then: as §4, §5

The target in another assay is T5, Streptavidin (UniProt P22629 37-163, limits assumed).
T5 construct: also called streptavidin alone
T5 sequence (P22629 37-163 limits assumed): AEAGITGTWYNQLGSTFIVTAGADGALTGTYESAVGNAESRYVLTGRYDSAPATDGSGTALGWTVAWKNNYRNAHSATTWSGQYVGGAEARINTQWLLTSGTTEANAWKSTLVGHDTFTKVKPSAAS
The assay can be described thus: ELISA on coated streptavidin; periplasmic extract, anti-Penta His-HRP.

Assay [6] concerns the target T6, NKp46-Fc (UniProt O76036 22-258, limits assumed).
T6 construct: Negative control protein; also called NKp46-Fc control protein; not shown: Fc part, not described
The assay can be described thus: Western blot on NKp46-Fc. The method, then:
For further characterization all of the anti-CD16A scFv were tested for binding in Western Blot on recombinant CD16A-Fc and NKp46-Fc.
The proteins were transferred on a nitrocellulose membrane by electroblotting. After staining with Ponceau S, the membrane was cut into strips of 5 mm width. Each nitrocellulose strip was individually incubated with scFv (4 μg/ml) in PBS, 0.1% tween, 2% skimmed milk. Detection was carried out with the anti-Penta His HRP-conjugate (1 μg/mL) using diaminobenzidine (DAB) as a peroxidase substrate. […] As an additional positive control, a goat anti-human IgG HRP-conjugate (0.16 μg/mL) was used for detection of the Fc portion of the fusion proteins.

Assay [7] deals with T7, native CD16B on human polymorphonuclear cells (neutrophilic granulocytes) (human, UniProt O75015 17-200).
T7 construct: whole, on cells; also called PMN; CD16B-positive granulocytes
T7 sequence (O75015 17-200): as the sequence (O75015 17-200 N65S) above, with S49N counted along it
Description: flow cytometry on freshly isolated PMN; scFv, anti-(His)6 MAb, FITC goat anti-mouse IgG; MFI minus secondary reagents alone. The method, then:
Polymorphonuclear cells (PMN) and natural killer (NK) cells were isolated from peripheral blood from a healthy donor and used for flow cytometric staining and analysis. […] All scFv were used at a concentration of 50 μg/mL and were detected with 10 μg/mL anti-(His)₆ followed by 15 μg/mL FITC-conjugated goat anti-mouse IgG. The mean fluorescence intensities obtained from flow cytometric analysis were corrected by subtracting the fluorescence values from cell stainings with the secondary reagents alone and were plotted in the diagram.
Enrichment of NK cells was performed by negative selection as described above.

The target of assay [8] is T3, human CD16A-Fc^48R/158V fusion protein. The assay can be described thus: SPR, steady state analysis (column Keq). The method, then: as §6
A further assay concerns the target T8, CD16B-Fc^SH (human, UniProt O75015 17-200).
T8 construct: extracellular domain; not shown: Fc region carried by the pSEC plasmid
Description: ELISA on 200 ng coated antigen; scFv, anti-His-HRP (1 µg/ml). The method, then:
(§7) FIG. 7: ELISA on different CD16 isoforms. […] An anti-NKp46 scFv used as a primary antibody acted as a negative control.
(§8) Detection of scFv bound to the recombinant proteins was carried out using an anti-His-HRP conjugate (1 μg/ml).

In the next assay the target is T9, CD16B-Fc^NA1 (human, UniProt O75015 17-200).
T9 construct: extracellular domain; not shown: Fc region carried by the pSEC plasmid
T9 sequence (O75015 other isoform, or with tags, fused parts or gaps): as the sequence (O75015 17-200 N65S) above, with S20R, S49N, N66D, I90V counted along it
The assay is described as above. The method, then: as §7, §8

Another assay addresses T10, CD16B-Fc^NA2 (human, UniProt O75015 17-200).
T10 construct: extracellular domain; not shown: Fc region carried by the pSEC plasmid
The assay is described as above. The method, then:
as §7, §8

The target of assay [9] is T6, NKp46-Fc. The description is as above. The method, then:
as §7, §8

For assay [10], the target named is T3, human CD16A-Fc^48R/158V fusion protein. The assay can be described thus: SPR, BIAcore 2000, antigen immobilized. The method, then: as §6
In assay [11] the target is T1, commercially available recombinant …. The assay can be described thus: ELISA on recombinant CD16B coated at 80 nM; scFv detected with anti-c-Myc-HRP (10 µg/ml). The method, then:
as §1, §2, §3

Assay [12] deals with T3, human CD16A-Fc^48R/158V fusion protein. Description: surface plasmon resonance.
For assay [13] the target is unchanged. The assay can be described thus: SPR, kinetic and steady state analysis. The method, then: as §6
Assay [14] has the same target. The assay can be described thus: SPR, BIAcore 2000, antigen immobilized, koff/kon. The method, then:
as §6

Where only a bound is given, the exact number is not on record here.

T1 sequence (O75015 17-200 N65S limits assumed): as the sequence (O75015 17-200 N65S) above
T2 sequence (O76036 other isoform, or with tags, fused parts or gaps limits assumed): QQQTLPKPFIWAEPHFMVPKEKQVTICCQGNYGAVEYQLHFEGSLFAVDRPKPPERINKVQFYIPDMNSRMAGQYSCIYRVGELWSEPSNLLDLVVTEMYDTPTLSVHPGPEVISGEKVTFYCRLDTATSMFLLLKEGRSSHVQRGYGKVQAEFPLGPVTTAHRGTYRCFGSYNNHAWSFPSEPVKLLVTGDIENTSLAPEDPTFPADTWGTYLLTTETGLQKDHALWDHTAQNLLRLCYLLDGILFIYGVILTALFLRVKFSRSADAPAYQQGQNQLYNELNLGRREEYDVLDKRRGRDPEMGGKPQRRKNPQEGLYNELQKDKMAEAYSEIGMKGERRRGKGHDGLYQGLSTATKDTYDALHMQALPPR
T6 sequence (O76036 22-258 limits assumed): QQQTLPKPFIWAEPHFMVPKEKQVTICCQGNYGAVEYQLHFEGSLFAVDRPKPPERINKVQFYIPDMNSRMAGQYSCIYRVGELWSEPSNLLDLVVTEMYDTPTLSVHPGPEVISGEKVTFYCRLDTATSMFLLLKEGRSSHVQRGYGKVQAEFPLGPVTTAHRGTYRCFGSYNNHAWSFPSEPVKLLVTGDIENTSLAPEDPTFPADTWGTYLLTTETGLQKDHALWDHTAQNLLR
T10 sequence (O75015 17-200 N65S): as the sequence (O75015 17-200 N65S) above
T8 sequence (O75015 17-200 N65S/A78D): as the sequence (O75015 17-200 N65S) above, with A62D counted along it

B1: human anti-CD16A scFv 50NI (scFv)
scFv: EVQLVQSGAEVKKPGESLKVSCKASGYTFTSYYMHWVRQAPGQGLEWMGIINPSGGSTSYAQKFQGRVTMTRDTSTSTVYMELSSLRSEDTAVYYCARGSAYYYDFADYWGQGTLVTVSSGSASAPTLKLEEGEFSEARVSYELMQPPSVSVSSGQTASIPCSGDKLEEKYVSWYQQRPGQSPVLVIYQDNKRPSGIPERFSGSNSGNTATLTISGTQAMDEADYYCQVWDNYSVLFGGGTKLTVLGQPKAAPSVTLFPPSAAAGSEQKLISEEDLNSHHHHHH
notes: also called clone 50NI; parental clone
As a reminder, the koff is the first-order rate constant of dissociation. One may read the kon as the second-order rate constant of association. The low end stands for slow association, the high end for fast association. The Kd is the concentration at which binding is half-saturated. For B1, the binding result is “no binding” in assay [1]; “no binding (tested: 50 µg/mL)” in assay [2]; “no binding (tested: 50 µg/mL)” in [5]; “no binding” with Streptavidin; “no binding (tested: 4 µg/ml)” in the assay with NKp46-Fc [6]; “no binding (tested: 50 µg/mL)” in assay [7]. In addition, the dissociation rate constant (koff) in assay [3] came to 0.0217 s⁻¹. Further, in [3], the kon came to 17600 M⁻¹ s⁻¹. For the same molecule, the results for the Kd in [4] and in assay [8] were 1230 nM and 2560 nM, respectively.

B2: affinity matured anti-CD16A scFv 4-LS21 (scFv)
scFv: EVQLVQSGAEVKKPGESLKVSCKASGYTFTSYYMHWVRQAPGQGLEWMGIINPSGGSTSYAQKFQGRVTMTRDTSTSTVYMELSSLRSEDTAVYYCARGSAYYYDFADYWGQGTLVTVSSGSASAPTLKLEEGEFSEARVQPVLTQPSSVSVAPGQTATISCGGHNIGSKNVHWYQQRPGQSPVLVIYQDNKRPSGIPERFSGSNSGNTATLTISGTQAMDEADYYCQVWDNYSVLFGGGTKLTVLGQPKAAPSVTLFPPSAAAGSEQKLISEEDLNSHHHHHH
notes: IMAC-purified from pSKK2
Consider B2, for which the binding result with CD16B-Fc^SH is listed as “no binding (tested: 4 µg/ml)”; with CD16B-Fc^NA1, “no binding (tested: 4 µg/ml)”; with CD16B-Fc^NA2, “no binding (tested: 4 µg/ml)”; with NKp46-Fc [9], “no binding (tested: 4 µg/ml)”; in [11] it was “no binding (tested: not given)”; in assay [2] it was “no binding (tested: 50 µg/mL)”. Also, the binding result in assay [5] and in [7] was “no binding (tested: 50 µg/mL)” each time. In addition, the koff in assay [10] worked out at 0.00342 s⁻¹; in [3], 0.0063 s⁻¹. Besides, the kon in assay [10] turned out to be 55400 M⁻¹ s⁻¹; in assay [3], 56000 M⁻¹ s⁻¹. In addition, the Kd in [4] is 113 nM; in assay [12], roughly 50 nM; in assay [14] it was 61.7 nM; in assay [8], 203 nM. Further, the “fold improvement of affinity over parental clone 50NI” value in [13] is greater than 20 fold.
